The target of the experiment is GFP-WIP (wild type) (human, UniProt O43516 1-503). Nature of the experiment: far-Western, overlay or dot blot.
GFP-WIP (wild type), sequence (O43516 whole entry): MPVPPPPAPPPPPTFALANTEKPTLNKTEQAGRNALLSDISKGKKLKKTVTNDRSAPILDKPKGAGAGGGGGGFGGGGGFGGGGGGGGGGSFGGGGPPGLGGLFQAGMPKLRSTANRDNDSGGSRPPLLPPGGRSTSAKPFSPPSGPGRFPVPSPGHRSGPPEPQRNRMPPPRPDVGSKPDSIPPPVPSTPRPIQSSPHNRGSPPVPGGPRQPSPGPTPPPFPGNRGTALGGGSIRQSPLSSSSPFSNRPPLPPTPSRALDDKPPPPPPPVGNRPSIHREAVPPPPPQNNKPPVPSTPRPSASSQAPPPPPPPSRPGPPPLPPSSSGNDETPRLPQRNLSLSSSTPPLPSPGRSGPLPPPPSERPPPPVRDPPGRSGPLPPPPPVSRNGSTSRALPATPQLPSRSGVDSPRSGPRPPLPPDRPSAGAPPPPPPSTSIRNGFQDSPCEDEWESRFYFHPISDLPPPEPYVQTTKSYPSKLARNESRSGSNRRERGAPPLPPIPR

B1: His-mAbp1-GST (natural protein, mouse, UniProt Q62418 1-436, looked up)
chain: MAVNLSRNGPALQEAYVRVVTEKSPTDWALFTYEGNSNDIRVAGTGEGGLEELVEELNSGKVMYAFCRVKDPNSGLPKFVLINWTGEGVNDVRKGACANHVSTMANFLKGAHVTINARAEEDVEPECIMEKVAKASGANYSFHKESTSFQDVGPQAPVGSVYQKTNAISEIKRVGKDNFWAKAEKEEENRRLEEKRRAEEERQRLEEERRERELQEAARREQRYQEQHRSAGAPSPSSRTGEPEQEAVSRTRQEWESAGQQAPHPREIFKQKERAMSTTSVTSSQPGKLRSPFLQKQLTQPETSYGREPTAPVSRPAAGVCEEPAPSTLSSAQTEEEPTYEVPPEQDTLYEEPPLVQQQGAGSEHIDNYMQSQGFSGQGLCARALYDYQAADDTEISFDPENLITGIEVIDEGWWRGYGPDGHFGMFPANYVELIE
For B1, the binding result is listed as “binds”.

(Values after article PMC2801713 (Molecular Biology of the Cell, 2010).)
